B1: GOLPH3 (parent)
chain: FAPLLDEQYDLATKRVRQLLDLDP

Variants of: B1
Assay: protein stability index of a GFP-peptide fusion (GPS, HEK-293T) (PSI 1-6); higher = more stable
Conditions: c terminus: a fixed tail appended
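Also: lentivirally expressed fusions sorted by FACS into six bins by GFP to DsRed ratio, PSI derived from sequencing read proportions per bin multiplied by bin number.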

Protein stability index, by site and new letter:
A12: C 1.57 | F 1.74 | D 2.72 | K 1.99 | R 2.04 | E 2.66 | S 2.36 | N 2.47 | G 2.12 | P 2.04 | L 1.82 | V 1.88 | M 2.8 | T 2.3 | Q 2.16 | H 2.43
R17: C 2.14 | S 2.61 | K 1.8 | G 2.45 | D 3.1 | V 2.03 | Q 2.77 | I 2.22 | N 2.83 | E 2.41
L4: C 1.67 | E 2.79 | T 1.72 | W 2.28 | I 2.33 | M 1.76 | A 1.81 | G 2.27 | K 2.34 | Q 2.12 | P 2.35 | S 1.75 | Y 2.65
L11: F 1.94 | A 3.3 | N 2.28 | P 2.91 | G 2.38 | Q 3.52 | V 2.21 | C 2.26 | W 2.82 | E 3.48 | S 2.27 | T 2.28 | D 3.09 | M 3.03
D23: L 2.01 | M 1.53 | V 1.6 | P 1.8 | Y 2.12 | G 2.65 | I 1.62 | A 2.07 | W 3.32 | K 1.78 | H 1.69 | T 1.94 | E 1.87 | S 1.85
Q18: K 2.18 | W 2.36 | S 2.11 | Y 1.74 | H 2.47 | L 2.52 | T 2.21 | P 2.04 | C 1.38 | A 2.52 | M 2.02 | R 1.44 | G 2.08
R15: T 1.76 | Q 2.11 | D 2.73 | I 2.01 | P 2.48 | F 2.06 | S 1.8 | K 1.93 | W 1.61 | E 2.43 | Y 1.51 | V 2.35 | M 1.99 | G 1.74 | A 2.56 | L 2.24
D6: W 1.88 | N 1.54 | S 2.26 | F 1.49 | I 1.46 | Y 2.03 | A 2.38 | L 1.83 | K 2.4 | C 2.25 | E 2.22 | P 2.81 | T 1.76
L19: W 2.27 | Y 1.85 | D 3.22 | N 1.89 | T 2.61 | Q 2.24 | C 1.49 | K 2.14 | E 2.58 | F 1.63 | G 2.26 | I 2.46 | R 1.65 | H 2.09
D10: W 3.11 | T 1.56 | Q 1.46 | G 2.15 | L 1.72 | K 1.98 | F 2.69 | M 2.24 | N 1.59 | R 2.23 | E 2.36 | V 1.27 | I 1.88 | Y 1.63 | C 2.54 | P 2.4
T13: V 2.28 | R 1.57 | F 1.96 | D 2.92 | I 1.6 | H 2.18 | L 2.28 | E 2.56 | C 1.54 | N 1.9 | A 2.41 | S 2.24
A2: E 3.13 | W 1.92 | S 3.46 | M 2.03 | L 2.2 | Q 3.37 | K 3.14 | N 3.01 | D 3.71 | H 2.48
P24: A 1.81 | I 1.38 | M 2 | G 2.28 | L 2.11 | H 3.6 | E 2.46 | C 2.36 | T 2.3 | F 3.43 | N 2.46 | Y 1.45 | Q 2.33 | V 2.7 | S 1.48
V16: I 2.19 | Q 2.4 | W 1.37 | G 2.75 | E 3.32 | D 2.02 | A 2.12 | S 1.74 | N 2 | P 2.45 | R 1.82
F1: L 3.67 | E 4.59 | T 4.11 | P 4.59 | I 3.11 | N 3.86 | H 4 | S 4.39 | V 3.06 | K 3.61 | Y 2.39 | Q 4.03 | G 4.41
E7: Y 1.48 | I 1.65 | G 1.86 | T 1.86 | W 2.56 | D 2.02 | L 1.55 | R 2.79 | C 1.98 | V 1.89 | A 1.49 | Q 2.66 | F 1.91 | K 1.87
L20: M 2.3 | Q 2.24 | I 2.59 | F 1.83 | N 2.25 | G 2.42 | S 2.53 | A 2.92 | H 1.98 | P 3.2 | R 1.91 | T 2.27 | E 2.76
D21: T 1.9 | K 1.64 | I 1.45 | S 1.95 | W 2.22 | M 1.85 | G 2.29 | P 1.48 | E 2.08 | R 1.55 | H 1.55 | V 2.79
Q8: W 1.32 | C 2.1 | M 1.88 | R 1.39 | L 1.95 | E 2.64 | S 2.24 | G 2.08 | T 2.64 | Y 2.33 | H 2.04 | N 1.84 | A 2.29 | F 1.5 | D 2.96
P3: Q 2.05 | Y 2.28 | V 2.38 | I 1.68 | S 2.34 | H 3.07 | F 1.52 | K 2.44 | T 2.88 | W 2.16 | R 1.87 | A 2.34 | D 2.79 | E 3.18
K14: V 1.84 | Y 1.97 | W 2.28 | D 2.94 | P 2.29 | H 1.99 | N 2.02 | E 2.14 | I 1.64 | A 1.76 | M 1.59 | G 1.99 | F 1.17 | S 2 | L 3.14 | R 2.24
L5: V 2.21 | K 2.39 | F 2.6 | A 2.34 | Y 2.45 | D 3.74 | H 2.42 | N 2.97 | I 1.78 | G 2.24 | M 2.38 | S 1.85 | T 1.95 | C 1.82 | Q 2.45 | P 2.21 | E 3.7 | R 1.18
L22: S 2.29 | M 2.58 | P 2.06 | I 2.45 | N 2.46 | A 3.04 | W 1.83 | Q 2.5 | R 2.26 | V 2.2 | T 2.21 | F 2.61 | D 2.75 | G 2.58 | Y 2.29
Y9: L 2.15 | N 2.57 | W 2.06 | K 2.4 | P 2.59 | C 2.9 | G 2.24 | I 2.26 | A 2.9 | S 2.96 | F 2.75 | E 3.5 | M 2.46 | Q 2.64 | D 2.98 | T 2.45 | H 2.49
